{"source": "the nanobody polyreactivity screen of Harvey et al. (2022)"}
{"experiment": "yeast display, Sf9 membrane polyspecificity reagent, FACS + sequencing; frameworks hold sequencing errors", "method_in_brief": "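A synthetic nanobody library was expressed on Saccharomyces cerevisiae BJ5465 by galactose induction for 36–48 hours. The library was stained for 1 hour at 4 °C with 10% biotinylated, detergent-solubilized Sf9 membrane reagent and enriched with streptavidin microbeads before FACS. Low and high (top ~1%) gates were set on anti-HA fluorescence for expression and streptavidin fluorescence for reagent binding, and each polyreactivity label reflects the gate of origin.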"}
{"sequence": "QVQLVESGGGLGQAGGSLRLSCAASGLIIQPNAMGWYSPAPGKERELVAAISSSDGSTYYADSVKGRFTISRDNAKNTVYLQMNSLKREDSAVYYCAAGYYFQVEPDLVYIYSYEYWGQGTHVTVSS", "polyreactivity (PSR sort gate)": "low polyreactivity"}
{"sequence": "QVQLVESGGGLVQAGGSLRLSCAASGSTFRGYTMGRNRQAPGKERELVAAISFRGTSTYYADSVKGRFTISRDNAKITVYLQMNSLIPEDTAVDYCAAVYTWGPGYGHDYWGQGTQVTVSS", "polyreactivity (PSR sort gate)": "low polyreactivity"}
{"sequence": "QVQLVESGGGLVQAGGSLRLSCAASGRIFGQYAMGWYRQAPGKERELVASISRRGGSKNYADSVKGRFTISRDNAKNTVYLQMNSRKPEDTAVYYCATGRTWILQKLDYWGQGTQVPVSS", "polyreactivity (PSR sort gate)": "high polyreactivity"}
{"sequence": "QVQLVESGGGLVQAGGSLRLSCAASGYTFQYNSMGWYRQAHGKERELVATISNRGTSTYYADSVKGRFTISRDNAKKTVYLQMNSLKPEDTAVYYCAKSRWSLYSSGVWSRRHFYYWGHGTQVTVSS", "polyreactivity (PSR sort gate)": "high polyreactivity"}
{"sequence": "QVQLEESCGGLVQAGGSLRLSCAASGSIFGTYAMGLYRHAPGKEREFVADISGIGTSTYYADSVKGRFTISRDNAKNTVYLQMNSLKPEDTAVYYCAAESFDTVEYDYWGQGTQVTVSS", "polyreactivity (PSR sort gate)": "low polyreactivity"}
{"sequence": "QVQLVESGGGLVQAGGSLRLSCAASGNIFPGYAMGWYRQAPGKERELVAGISGSGGRTYYADSVKGRFTISRDNAKITVYLQMNSLKPEDSAVYYCAAEFKYYYRFEYDYWGQGTQVTVSS", "polyreactivity (PSR sort gate)": "low polyreactivity"}
{"sequence": "PDQLVESGGGLVQAGGSLRLSCAASGRTFSGYGMGWYRQAPGKERELVAAFSSSGDSTYYADSVKGRFSIARDNPKNTVYVQMNSLKPDDPAVYYCNDYRRSYNGFRYYYWGQGTQVTVSS", "polyreactivity (PSR sort gate)": "low polyreactivity"}
{"sequence": "QVQLVESGGCLVQAGGSLRLRGAASGRIFGYYAMGWYRQAPGKEWELVAAISRGGSTNYADSVKGRFTISRDNAKNTVYLQMNSLKPEDTAVYYCAAVQRTHPRYYYWGQGTQVTVSS", "polyreactivity (PSR sort gate)": "high polyreactivity"}
{"sequence": "QVQLVESGGGLVQAGGSLRLSCAASGTFYRNAMGWYRQAPGKERELVAAISSGSNTDYADSVKGRFTISRDNAKNTVYLQMNSLKPEDTAVYYCAADSLARRYDYWGQGTQVTVSS", "polyreactivity (PSR sort gate)": "low polyreactivity"}
{"sequence": "QVQLVESGGGLVQAGGSLRLSCAPCGFTFRRNAMGWYRQAPGKERELVAAINWSGGSTYYADSVKGRFTLSRDNAKNNVYLQMNSLKPEDTAVYYCNRRGQYTFWPIHEYWGQGTQVTVSS", "polyreactivity (PSR sort gate)": "high polyreactivity"}
{"sequence": "QVQLVEAGGGLVQAGGSLRLSCAASGSTFSYAMGWYRQAPGKETELVAAITIGGRTSYADSVKGRFTISRDNAKNTVYLQMNSLKPEDTAVYYCAAEGYYPVYYYVYYGFDYWGQGTQVTVSS", "polyreactivity (PSR sort gate)": "low polyreactivity"}
{"sequence": "QVQLVESGGGLVQAGGSLRLSCAASGLIFNTYAMGWYRQAPGKDRELVAAITDGGGTNYADSVKGRFTISRDNAKNTVYLQMNSLKPEDTAVYYCAARLASWPLTYDFQWYEYWGQGTQVTVSS", "polyreactivity (PSR sort gate)": "low polyreactivity"}
{"sequence": "QVQLVESGGGLVQAGGSLRLSCAASGSIFGDYAMGWYRQAPGKERELVAGITQSGSSTYYADSVKGRFTISRDNAKNTVYLQMNSLKPEDTAVYYCNKDWGPGPNEFDYWGQGTQVTVSS", "polyreactivity (PSR sort gate)": "low polyreactivity"}
{"sequence": "QVQLVESGGGLVQAGGSLRLSCAASGSIFGVYAMGRYIQAPRKERELVASISRGGSTNYADSVKGRFTISRDNAKNTVYLQMKSLKPEDTAVYYCASDGVYQGWTWLYGLRYNYWGQGTQVTVSS", "polyreactivity (PSR sort gate)": "low polyreactivity"}
{"sequence": "QVQLVESGGGLVHAGGSLRLSCAASGSTFYSYAMGGYRQAPGKERELVAAISRSGGRTYYADSVKGRFTISRDIAKNTVYLQMKSLKPEDTAVYYCNAVNSVTTSTRTRAKYAAYDSWGQGTQVTVSS", "polyreactivity (PSR sort gate)": "high polyreactivity"}
{"sequence": "QVQLVESGGGLVQAGGSLRLSCAASGGNFKQYAMGWYRQAPGKERELVAAISRRGGSTYYADSVKGRFTISRDNAKNTVYLQMNSLKPEDTAVYYCAAPGPTQSTQRGGYWGQGTQVTVSS", "polyreactivity (PSR sort gate)": "high polyreactivity"}
{"sequence": "QVQLVESGGGLVQAGGSLRLSCAASGRTFFYNAMGWYRQAPGKERELVAAISGRGGRTYYADSVKGRFTISRDNAKNTVHLQMNSLKPEDTAVYYCAADAGPLRYDYWGQGTQVTVSS", "polyreactivity (PSR sort gate)": "high polyreactivity"}
{"sequence": "QVQLVESGGGIVQAGGSLRLSCAASGGTFSRNAMGWYRQAPGKERELVAAINSSGVSTSYADSVKGRFTISRDNEKNTVYLQMNSLKPEDTAVYYCAAETSSAEVDYWGQGTQVTVSS", "polyreactivity (PSR sort gate)": "low polyreactivity"}
{"sequence": "QVQLVESGGGLVQAGGSLRLSCAASGFTFQDYAMGWYRQAPGKERELVAAISTSDGNTYYADSVKGRFTISRDNAKNTVYLQMNSLKPEDTAVYYCAAQRNYGWVKFYYWGQGTQVTVSS", "polyreactivity (PSR sort gate)": "high polyreactivity"}
{"sequence": "QVQLVESGGGLVQAGGSLRLSCAASGSTFWYYAMGWYRQAPGKERELVAAISRGGNTYYADSVKGRFTISRDNAKNTVYLQMNSLKPEDTAVYYCAARVHYWYPSTGHHYWGQGTQVTVSS", "polyreactivity (PSR sort gate)": "high polyreactivity"}
{"sequence": "QVQLVESGGGLVQAGGSLRLSCAASGYTFSLNAMGWYRQAPGKERELVAAIRGGGSTNYADSVKGRFTISRDNAKKTVYLQMNSLKPEDTAVYYCAASSYNGHVYWGQGTQVTVSS", "polyreactivity (PSR sort gate)": "low polyreactivity"}
{"sequence": "QVQLVESGGGLVQAGGSLRLSCADSGIIFKGYDMGWYSQPPGKEREVVAAIYSGSTNYADSVKGRFTISRDNAKNTVYLQMNSLKPEDTAVYYCNSDLGRATFYQRVFIERGGYWGQGTQVTVSS", "polyreactivity (PSR sort gate)": "low polyreactivity"}
{"sequence": "QVQLVESGGGLVQAGGSLRLSCAASGRTFRYYAMGWYRQAPGKERELVAAITGSGGSTYYADSVKGRFTISRDNAKNTVYLQMNSLKPEDTAVYYCATRWALRWRGGYWGQGTQVTVSS", "polyreactivity (PSR sort gate)": "high polyreactivity"}
{"sequence": "QVQLVESGGGLVQAGGSLRLSCAASGRTFLLNAMGWYRQAPGKERELVATITYSGGITYYADSVKGRFTISRDNAKNTVYLQMNSLKPEDTAVYYCSTSGPQYYSRNFDYWGQGTQVTVSS", "polyreactivity (PSR sort gate)": "low polyreactivity"}
{"sequence": "QVQLVESGGGLVQAGGSLRLSCAASGSIISSNAMGWYRQAPGKEREMVAAITWSGGSTYYADSVKGRFTNSRDNAKNTVYLQMNSLKPEDTAVYYCAADQWRYDGSFTGYGYWGQGTQVTVSS", "polyreactivity (PSR sort gate)": "low polyreactivity"}
{"sequence": "QVQLVESGGGLVQAGGSLRLSCAASGSTIYYYALGWYRQAPGKERELVAAISWSGASTFYADSVKGRFTISRDNAKNTVDLKMNSLKPVDTAVYYCAAVIKGWGQGTQVTVSS", "polyreactivity (PSR sort gate)": "high polyreactivity"}
{"sequence": "QVQLVESGGGLVQAGGSLRLSCAASGRIFNLYAMGWYRQAPGKERELVAAIRGRGTSTYYADSVKGRFTISRDNAKNTVYLQMNSLKPEDTAVYYCATTSRELGELRIFDYWGQGTQVTVSS", "polyreactivity (PSR sort gate)": "low polyreactivity"}
{"sequence": "QVQLVESGGGLVQAGGSIRLTCAASGLIIGVYAKGWYRQAPGKERELVAAITDGGSTYYADSVKGRFTISRDNEQNTVSLQMNSVKPEDTAVYYCAREQGVNRNHDYWGQGTQVTVSS", "polyreactivity (PSR sort gate)": "low polyreactivity"}
{"sequence": "QVQLVESGGGLVQAGGSLRLSCAASGSTFPYYVMGWYRQAPGKERELVAAISWSGASTYYADSVKGRFTISRDNAKNTVYLQMNSLKPEDTAVYYCNRPKWYDGDYWGQGTQVTVSS", "polyreactivity (PSR sort gate)": "high polyreactivity"}
{"sequence": "QVQLVESGGGLVQAGGSLRLSCAASGSTFKVYAMGWYRQAPGKERELVATISKSGSTYADSVKGRFTISRDNAKNTVYLQMNSLKPEDTAVYYCAADLYTYPRTRRRAYGYWGQGTQVTVSS", "polyreactivity (PSR sort gate)": "high polyreactivity"}
{"sequence": "QVQLVESGGGLVQAGGSLRLSCAASGFIFATYTMGWYRQAPGKERELVAAITWRGGSTYYADSVKGRFTISRDNAKNTVYLQMNSLKPEDTAVYYCAAPDVYSYRYVEDDYWGQGTQVTVSS", "polyreactivity (PSR sort gate)": "low polyreactivity"}
{"sequence": "QVQLVESGGGIVQAGGSLRLSCAASGFTFSNNVMGGYRQAPGKERELVAAITWSGDGTYYADSVKGRFTISRDNAKNTVYLQMNSLKPEDTAVYYCNARYGKEYDYWGQGTQVTVSS", "polyreactivity (PSR sort gate)": "low polyreactivity"}
{"sequence": "QVQLVESGGGLVQAGGSLRLSCAASGRTFGRNAMGWYRQAPGKERELVAAISLRGGRTYYADSVKGRFTISRDNAKNTVYLQMNSLKPEDTAVYYCAAVQPVGLYPRTKYYYWGQGTQVTVSS", "polyreactivity (PSR sort gate)": "high polyreactivity"}
{"sequence": "QVQLVESGGGLVQAGGSLRLSCAASGRTFRYNAMGWYRQAPGKERELVADITFSGGNTYYADSVKGRFTISRDNAKNTVYLQMNSLKPEDTAVYYCAKRRYYTGGMDYWGQGTQVTVSS", "polyreactivity (PSR sort gate)": "low polyreactivity"}
{"sequence": "QVQLVESGGGLVQAGGSLRLSCAASGITFNVYAMGWYRQAPGKERELVAAISYNGGRTYYADSVKGRFTISRDNAKNTVYLPMNSLKPEDTAVYYCAAQWPWGPYDYWGQGTQVTVSS", "polyreactivity (PSR sort gate)": "high polyreactivity"}
{"sequence": "QVQLVESGGGLVQEGGSLRLSCAASGSTFYIYGMGWYRQAPGKERELVARISSGGSTYADSVKGRFTISRDNAKNTVYLQMYSLKPEDTAVYYCAAAAARTYRRYRYEGYFYWGQGTQVTVSS", "polyreactivity (PSR sort gate)": "high polyreactivity"}
{"sequence": "QVQLVESGAGLVQAGGSLRLICAASGFIFADYAMGWYRQAPGKERELVAAITSSGSRTYYADSVKGRFTISRDNAKNTVYLQMNSLKPEDTAVYYCAVRGVYYYHFAFDYWGQGTQVTVSS", "polyreactivity (PSR sort gate)": "high polyreactivity"}
{"sequence": "QVQLVESGGGLVQAGGSLRLSCAASGRTFVGYAMGWYRQAPGKERELVAVISGRGGSTYYADSVKGRFTISRDNAKNTVYLQMNSLKPEDTAVYYCAAYVARKWTSGYWGQGTQVTVSS", "polyreactivity (PSR sort gate)": "high polyreactivity"}
{"sequence": "QVQLVESGGGLVQAGGSLRLSCAASGFIFDPYAMGWYRQAPGKERELVAAISRGGSTYYADSVKGRFTISRDNAKNIVYLQMNSLKPEDTAVYYCAAVFKFTREYSTGIRYYYWGQGTQVTVSS", "polyreactivity (PSR sort gate)": "high polyreactivity"}
{"sequence": "QVQLVESGGGLVQAGGSLRLSCAASGSTFHRNGMGWYRQAPGKERELVAAISRTGGSTYYADSEKGRFTISRDNAKNTVYLQMNSLKPEDTAVYYCAAQGNNYVRHTYGYWGQGTQVTVSS", "polyreactivity (PSR sort gate)": "low polyreactivity"}
{"sequence": "QVQLVESGVGLVQAGGSLRLSCAASGITFRSYAMGWYRQAPGKERELVAAIRSGGSTSYADSVKGRFTISRDNAKNTVYLQMNSLKPEDTAVYYCAAGGYVPLPDITFWKFGYWGQGTQVTVSS", "polyreactivity (PSR sort gate)": "low polyreactivity"}
{"sequence": "QVQLVESGGGLVQAGGSLRLSCAASGFIFSTYAMGWYRQAPGKERELVAAITNSGGSTYYADSVKGRFTISRDNAKNTVYLQMNSLKPEDTAVYYCARRRSYRDNYWGQGTQVTVSS", "polyreactivity (PSR sort gate)": "high polyreactivity"}
{"sequence": "QVQRVESGGGLVQAGGSLRLSCAASGSTLGYYTMGWYRQAPGKERELVAAIDWSGGSTYYADSVKGRFTISRDNAKNTGYLQMNSLKPEDTAVYYCNAEPWDPFYSPGRGGMDYWGQGTQVTVSS", "polyreactivity (PSR sort gate)": "low polyreactivity"}
